± gives the standard deviation of the averaged measurements.
B1: library; a variant is named by its letters at N, in order (parent)
chain: GCUGUCACCGGUGUAUUACCCUAGUGGUCGACCGGUCUGAUGAGUCUNNNNNNAGACGAAACAGC

What was measured:
[1] = variants of: B1; experiment: FACS-Seq fitted mean relative fluorescence mCherry/BFP without ligand (log10 relative fluorescence); ligand: hypoxanthine (xanthine aptamer); higher = higher reporter protein expression; conditions: HEK293T, ligand present: no
In short: (§1)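 HEK293T libraries were made by lentiviral transduction with a ribozyme-switch mCherry reporter and an EF1α-BFP marker, enriched, and incubated with or without ligand for 48 h. Cells were sorted into 6 mCherry/BFP bins, and each bin's genomic DNA was PCR-amplified, barcoded and run on MiSeq. Fluorescence was derived by normal fitting of the bin counts. The fitted log10(mCherry/BFP) mean was scaled to five spiked-in control ribozymes.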

[2] = variants of: B1; experiment: normalized RNA/DNA level with ligand (relative to sTRSVctl = 100) (log10 (% of sTRSVctl)); ligand: hypoxanthine (xanthine aptamer); higher = less ribozyme self-cleavage, higher mRNA level; conditions: ligand concentration (+) RNA-Seq: 5 mM, HEK293T, reporter: mCherry (pCS4076), ligand present: yes
Procedure: (§2)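 Hammerhead (sTRSV) ribozyme switch libraries with a ligand aptamer grafted on stem I and a randomized N4-6 loop II, cloned into the 3' UTR of mCherry and transiently transfected into HEK293T cells; RNA-Seq 72 h post transfection with ligand added 1 h before transfection; RNA read count / plasmid DNA read count normalized to the non-cleaving sTRSVctl (x100), log10; sequences with >100 DNA reads. FACS-Seq: lentiviral library sorted into 6 bins after 48 h ligand, log-normal fit mean of mCherry/BFP scaled to controls. Printed sequences are partial switch sequences.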

[3] = variants of: B1; experiment: normalized RNA/DNA level without ligand (relative to sTRSVctl = 100) (log10 (% of sTRSVctl)); ligand: hypoxanthine (xanthine aptamer); higher = less ribozyme self-cleavage, higher mRNA level; conditions: HEK293T, reporter: mCherry (pCS4076), ligand present: no
Procedure: as §2

[4] = variants of: B1; experiment: FACS-Seq fitted mean relative fluorescence mCherry/BFP with ligand (log10 relative fluorescence); ligand: hypoxanthine (xanthine aptamer); ligand concentration (+) FACS-Seq: 5 mM; higher = higher reporter protein expression; conditions: HEK293T, ligand present: yes
In short: as §1

Variant	FACS-Seq fitted mean (log10) [1]	normalized RNA/DNA level with ligand (log10) [2]	normalized RNA/DNA level without ligand (log10) [3]	FACS-Seq fitted mean (log10) [4]
CAUUAA	0.176 ± 0.0055	1.87 ± 0.071	1.712 ± 0.015	0.306 ± 0.052
GAUUAA	0.276 ± 0.0053	1.949 ± 0.012	1.79 ± 0.044	0.381 ± 0.012
AAUUAA	0.435 ± 0.032	1.893 ± 0.0034	1.764 ± 0.0032	0.276 ± 0.14
UAUUAA	0.486 ± 0.054	1.89 ± 0.0083	1.86 ± 0.022	0.724 ± 0.088
GAUUAC	0.748 ± 0.036	1.935 ± 0.0039	1.8 ± 0.049	0.749 ± 0.12
AAUUAC	0.511 ± 0.13	1.96 ± 0.04	1.823 ± 0.016	0.516 ± 0.022
UAUUAC	0.513 ± 0.025	1.9 ± 0.054	1.823 ± 0.018	0.512 ± 0.011
GAUUAG	0.0562 ± 0.066	1.86 ± 0.075	1.39 ± 0.014	0.539 ± 0.085
AAUUAG	0.404 ± 0.012	1.86 ± 0.037	1.52 ± 0.032	0.681 ± 0.03
CAUUAU	0.7325 ± 0.0015	1.9 ± 0.08	1.8 ± 0.021	0.778 ± 0.098
GAUUAU	0.368 ± 0.062	1.945 ± 0.0077	1.839 ± 0.012	0.455 ± 0.019
UAUUAU	0.643 ± 0.015	1.93 ± 0.023	1.8 ± 0.028	0.594 ± 0.024
AAUUCA	0.486 ± 0.061	1.93 ± 0.049	1.86 ± 0.025	0.567 ± 0.082
UAUUCA	0.158 ± 0.15	1.942 ± 0.0084	1.925 ± 0.0052	0.144 ± 0.082
GAUUCG	-0.06 ± 0.056	1.906 ± 0.0054	1.54 ± 0.021	0.357 ± 0.021
AAUUCG	0.321 ± 0.022	1.9 ± 0.041	1.52 ± 0.043	0.729 ± 0.034
CAUUGA	0.221 ± 0.12	1.912 ± 0.0057	1.82 ± 0.053	0.32 ± 0.0063
GAUUGA	0.348 ± 0.023	1.92 ± 0.022	1.61 ± 0.05	0.455 ± 0.063
AAUUGA	-0.0788 ± 0.062	1.9 ± 0.041	1.73 ± 0.018	-0.112 ± 0.16
GAUUGC	0.4839 ± 0.0013	1.87 ± 0.054	1.65 ± 0.043	0.553 ± 0.01
GAUUGG	-0.303 ± 0.024	1.794 ± 0.017	1.29 ± 0.047	0.393 ± 0.017
AAUUGG	0.22 ± 0.02	1.872 ± 0.014	1.405 ± 0.0046	0.658 ± 0.036
UAUUGG	0.528 ± 0.017	1.87 ± 0.031	1.431 ± 0.011	0.745 ± 0.06
GAUUGU	0.452 ± 0.076	1.944 ± 0.01	1.77 ± 0.042	0.601 ± 0.054

Variant	FACS-Seq fitted mean (log10) [1]	normalized RNA/DNA level with ligand (log10) [2]	normalized RNA/DNA level without ligand (log10) [3]	FACS-Seq fitted mean (log10) [4]
UAUUGU	0.106 ± 0.0092	1.92 ± 0.044	1.7 ± 0.026	0.411 ± 0.049
CAUUUA	-0.0161 ± 0.022	1.98 ± 0.036	1.77 ± 0.034	0.532 ± 0.019
GAUUUA	0.541 ± 0.043	1.89 ± 0.036	1.87 ± 0.051	0.437 ± 0.1
CAUUUC	0.66 ± 0.057	1.92 ± 0.043	1.9 ± 0.069	0.774 ± 0.066
GAUUUG	0.162 ± 0.045	1.87 ± 0.046	1.4542 ± 0.00087	0.521 ± 0.0058
AAUUUG	0.3 ± 0.021	1.873 ± 0.012	1.57 ± 0.046	0.468 ± 0.064
ACAAAA	0.4 ± 0.17	1.904 ± 0.0062	1.81 ± 0.021	0.1925 ± 0.0013
UCAAAA	0.491 ± 0.022	1.934 ± 0.013	1.717 ± 0.0054	0.446 ± 0.019
CCAAAC	0.763 ± 0.049	1.93 ± 0.038	1.875 ± 0.012	0.528 ± 0.086
GCAAAC	0.411 ± 0.03	1.91 ± 0.023	1.6 ± 0.036	0.455 ± 0.055
ACAAAC	0.5372 ± 0.0045	1.93 ± 0.062	1.826 ± 0.017	0.517 ± 0.046
ACAAAG	0.343 ± 0.016	1.901 ± 0.0069	1.54 ± 0.028	0.696 ± 0.034
UCAAAG	-0.374 ± 0.059	1.92 ± 0.072	1.68 ± 0.039	-0.184 ± 0.025
CCAAAU	0.00231 ± 0.0079	1.93 ± 0.0062	1.83 ± 0.058	0.404 ± 0.042
GCAAAU	-0.00409 ± 0.019	1.932 ± 0.0088	1.75 ± 0.043	0.371 ± 0.013
ACAAAU	0.311 ± 0.091	1.89 ± 0.029	1.65 ± 0.044	0.331 ± 0.014
UCAAAU	0.4822 ± 0.0021	1.92 ± 0.02	1.77 ± 0.036	0.54 ± 0.053
GCAACA	-0.108 ± 0.043	1.96 ± 0.027	1.85 ± 0.059	-0.0215 ± 0.13
UCAACA	0.101 ± 0.027	1.959 ± 0.018	1.84 ± 0.024	0.297 ± 0.054
CCAACC	0.551 ± 0.044	1.94 ± 0.021	1.95 ± 0.054	0.584 ± 0.055
UCAACG	0.504 ± 0.15	1.918 ± 0.0024	1.783 ± 0.015	0.585 ± 0.091
CCAACU	0.611 ± 0.037	2.02 ± 0.025	1.945 ± 0.012	0.58 ± 0.015
GCAAGA	0.209 ± 0.025	1.94 ± 0.045	1.708 ± 0.0095	0.332 ± 0.0071
ACAAGA	0.164 ± 0.1	1.891 ± 0.0031	1.65 ± 0.037	0.121 ± 0.037

Variant	FACS-Seq fitted mean (log10) [1]	normalized RNA/DNA level with ligand (log10) [2]	normalized RNA/DNA level without ligand (log10) [3]	FACS-Seq fitted mean (log10) [4]
UCAAGA	0.386 ± 0.04	1.92 ± 0.028	1.54 ± 0.051	0.599 ± 0.074
CCAAGC	0.126 ± 0.14	1.938 ± 0.012	1.79 ± 0.15	0.366 ± 0.074
ACAAGC	0.743 ± 0.017	1.92 ± 0.033	1.76 ± 0.015	0.863 ± 0.082
ACAAGG	-0.00738 ± 0.11	1.83 ± 0.065	1.26 ± 0.024	0.113 ± 0.14
CCAAGU	0.347 ± 0.027	1.94 ± 0.024	1.863 ± 0.016	0.544 ± 0.032
UCAAGU	0.221 ± 0.018	1.91 ± 0.0075	1.63 ± 0.043	0.415 ± 0.046
GCAAUA	0.126 ± 0.036	1.941 ± 0.016	1.87 ± 0.026	0.466 ± 0.071
ACAAUA	0.442 ± 0.015	1.916 ± 0.017	1.81 ± 0.015	0.552 ± 0.018
GCAAUC	0.498 ± 0.03	1.98 ± 0.058	1.77 ± 0.0096	0.531 ± 0.046
UCAAUC	0.3976 ± 0.0018	2.0151 ± 0.001	2 ± 0.024	0.543 ± 0.12
CCAAUG	0.585 ± 0.11	1.929 ± 0.011	1.61 ± 0.046	0.683 ± 0.023
GCAAUG	0.028 ± 0.018	1.87 ± 0.05	1.436 ± 0.0057	0.443 ± 0.04
ACAAUG	0.37 ± 0.017	1.87 ± 0.061	1.56 ± 0.053	0.638 ± 0.044
GCACAA	0.663 ± 0.02	1.86 ± 0.046	1.75 ± 0.019	0.678 ± 0.026
GCACAG	0.227 ± 0.034	1.863 ± 0.00078	1.45 ± 0.021	0.0639 ± 0.076
UCACAU	-0.364 ± 0.044	1.93 ± 0.051	1.8 ± 0.021	0.26 ± 0.027
UCACCA	0.743 ± 0.044	1.93 ± 0.025	1.919 ± 0.0074	0.834 ± 0.076
CCACCC	0.2004 ± 0.0019	1.93 ± 0.044	1.93 ± 0.045	0.312 ± 0.0055
ACACCC	0.129 ± 0.016	1.97 ± 0.1	1.87 ± 0.12	0.45298 ± 0.00015
UCACCG	0.705 ± 0.011	1.94 ± 0.027	1.7 ± 0.025	0.592 ± 0.045
GCACCU	0.968 ± 0.14	1.942 ± 0.0073	1.94 ± 0.044	0.785 ± 0.08
UCACCU	0.67 ± 0.034	1.94 ± 0.037	1.94 ± 0.061	0.419 ± 0.013
ACACGA	-0.273 ± 0.0021	1.91 ± 0.062	1.73 ± 0.058	0.145 ± 0.0024

Source: the supplement of paper PMC6757056
